B1: LINE1-full (parent)
chain: UACGUAGGUGGUUUUCCCCUGAUAGUGCUAAGGGGGCCUGGAAGUUUGGACUGGGCAGAGCUCAACACAGCGUGGCAAAGUGGCUGUGGCUAGACUGCCUCUCUGGAUUCCUCGUCACUCAGCAGGGCAUCUCUGAGAGAAAUGCC

Variants of: B1
Assay: self-cleavage, relative activity (ratio to wild type); higher = more cleavage; in vitro, sequencing; the parent is a self-cleaving ribozyme

Variant | self-cleavage
C17U A42G | 1.36
C17U U26A | 0.85
C19A U108C | 1.46
C17A U115C | 0.71
C18U G60A | 0.01
U20C A65G | 0.06
U20A U26C | 1.11
C19U A117U | 1.28
C19G U26C | 1.2
U20C C123A | 1.34
U20C C123U | 0.91
U15G U108C | 1.06
U20A A22G | 0.69
U20A A22U | 1.56
C16U A138G | 2.06
U20A A43U | 1.46
U20A U119A | 1.47
U20A U119C | 1.05
C18A A42G | 1.45
C16U C38U | 1.06
C18U A43G | 2.02
U20A A117U | 1.49
U20A A117G | 1.94
U20A A117C | 1.77

Variant | self-cleavage
C16A U46C | 0.91
C18A G58U | 0.07
C17U A64G | 0.22
C18U U108C | 0
U20A U52G | 1.58
U20A U52C | 1.77
U20A U52A | 0.54
U20A G44U | 1.2
U15G U47A | 1.16
U20C G27A | 1.12
U20A C99A | 0.74
C19U U85C | 0.21
C19A G72A | 1.07
C19U A141U | 1
C19U A141G | 0.99
C19U C84U | 0.22
C17G U102A | 1.38
C17U A67G | 0.34
U20A C145U | 1.13
C17U A65G | 0.18
C17U A65U | 0.07
C17A A22G | 2.19
U20C G36C | 1.51
C19U G32A | 0.87

Variant | self-cleavage
U15G U119A | 1.01
U20A A129G | 0.97
C19U A65G | 0.14
C18A A138U | 1.66
C18A A138G | 2.26
C18A A24G | 1.11
U20C C111U | 1.03
C17U A121G | 1.53
C18A U143C | 0.56
C19U U62A | 0.07
C16U U96C | 0.11
C16U U96A | 0.03
C16A U115C | 0.41
C19A A138C | 1.07
C19A A138G | 0.72
U20A U108G | 0.53
C19U U115A | 1.04
C16U U132C | 1.12
U20A A64G | 0.46
U20C C38A | 1.11
C16A A67G | 1.02
U20A G48U | 1.42
U20A G48A | 0.77
C16U A77U | 1.4

Variant | self-cleavage
C17U A50G | 0.59
C19U U102A | 1.19
C18U U100C | 1.53
U20A A69C | 0.06
U20A A69U | 0.1
C16U A92U | 0.58
C16U A92G | 0.2
C18U A129G | 0.81
U20A A138U | 1.19
C19U U73A | 1.15
C19U U73C | 0.85
C19U U96A | 0.07
C19A A42G | 0.33
U20A C38A | 1.01
C17A A67G | 0.56
U20C A117G | 1.59
U20C C37G | 1.08
U20C C37U | 1.33
U20A C110A | 1.4
U20A U130C | 1.45
U20A U130A | 0.32
C16U G40U | 0.6
C16U U91C | 0.74
C18U A78G | 0.88

Variant | self-cleavage
C18U A78U | 0.9
U20C A31G | 1.16
U20C A31U | 1.08
C19A U104C | 1.14
C18U A69C | 0.07
U15G U96A | 0.16
U15G U96C | 0
C17U A69G | 0.4
C18A U104A | 0.85
C19U U81A | 1.05
U15G U39A | 1.19
U20C A121G | 1.35
C16A A142G | 0.86
C19A U62C | 0.28
U20C G60U | 0.05
C18G A65U | 0.28
U20C A43U | 1.4
U20C A43G | 1.35
C16A U20A | 1.64
C19U A121G | 0.42
C19U A121U | 1.03
U20C A42U | 1.06
C18U U134G | 1.95
C17U G49U | 1.69

Variant | self-cleavage
U20A G122U | 1.59
U20C G55A | 0.25
C17U A22U | 1.21
C17G U91C | 0.38
C18U A30U | 0.14
U20A G137A | 1.29
C17G U108C | 0.81
C19U U45C | 0.86
C19U U45A | 1.43
C19U G54A | 0.57
U20A C28U | 1.3
U20A A59U | 0.7
C19U G89A | 0.11
C18G | 1.36
C18U | 1.17
C18A | 1.39
C19U U143C | 0.98
C19U U47C | 0.98
C18G A124G | 1.02
U15G U104C | 0.89
C18U A65G | 0.07
U20A G72A | 1.31
C19U C38A | 1.13
C18U G144A | 0.75

Variant | self-cleavage
C16U U100A | 0.32
C18U A79G | 1
C18U U102G | 0.62
C18U U102C | 1.61
U20C A64U | 0.65
U20C A64G | 0.41
C19A A77G | 2.71
U20C C63U | 0.48
U20C C98A | 0.07
U20C G54U | 0.91
C18A U73G | 1.01
C17U A138G | 1.06
C17U A138U | 1.29
U20A G126A | 1.28
C19U C51U | 1.01
C19A U85G | 0.13
U20A C95A | 0.09
U20A C95U | 0.13
U20C A92C | 0.14
C17U U47A | 1.34
C19A U26A | 1.16
C16G C71G | 0.42
U20A | 1.21
